Test results published in patent publication US20160287687A1 (IMMATICS BIOTECHNOLOGIES, published 2016).

B1: YVLTQPPSV (SEQ ID NO: 68) (peptide)
peptide: YVLTQPPSV
notes: source genes IGLV3-21, IGLV2-14, IGLJ3, IGLC1, IGLC2

molecular target: T1, HLA-A*02:01 (human); assay: UV-ligand exchange + anti-b2m ELISA; peptide exchange yield grade (+ >=10%, ++ >=20%, +++ >=50, ++++ >=75%)
T1 construct: MHC monomers first loaded with a UV-sensitive peptide (not identified) that is cleaved by UV light and exchanged for the test peptide; captured on streptavidin plates, detected with anti-β2m; also called peptide-receptive MHC molecules; MHC class I
Description: Candidate peptides for T cell based therapies according to the present invention were further tested for their MHC binding capacity (affinity). The individual peptide-MHC complexes were produced by UV-ligand exchange, where a UV-sensitive peptide is cleaved upon UV-irradiation, and exchanged with the peptide of interest as analyzed. Only peptide candidates that can effectively bind and stabilize the peptide-receptive MHC molecules prevent dissociation of the MHC complexes. To determine the yield of the exchange reaction, an ELISA was performed based on the detection of the light chain (β2m) of stabilized MHC complexes. The assay was performed as generally described in Rodenko et al. (Rodenko et al., 2006).
96 well MAXISorp plates (NUNC) were coated over night with 2 ug/ml streptavidin in PBS at room temperature, washed 4× and blocked for 1h at 37° C. in 2% BSA containing blocking buffer. Refolded HLA-A*02:01/MLA-001 monomers served as standards, covering the range of 15-500 ng/ml. Peptide-MHC monomers of the UV-exchange reaction were diluted 100 fold in blocking buffer. Samples were incubated for 1 h at 37° C., washed four times, incubated with 2 ug/ml HRP conjugated anti-β2m for 1h at 37° C., washed again and detected with TMB solution that is stopped with […]. Absorption was measured at 450 nm. Candidate peptides that show a high exchange yield (preferably higher than 50%, most preferred higher than 75%) are generally preferred for a generation and production of antibodies or fragments thereof, and/or T cell receptors or fragments thereof, as they show sufficient avidity to the MHC molecules and prevent dissociation of the MHC complexes.

Binder	peptide exchange yield
SLMGILLRI (source gene CARD8) [SLMGILLRI (SEQ ID NO: 61)]	20 to 50%
VLFELSKTV (source gene ATP11A) [VLFELSKTV (SEQ ID NO: 6)]	50 to 75%
VLAGPAFLVQL (source gene SLC47A1) [VLAGPAFLVQL (SEQ ID NO: 62)]	50 to 75%
GLIEDHFDVTV (source gene ERAP1) [GLIEDHFDVTV (SEQ ID NO: 63)]	20 to 50%
LLAASVALA (source gene NPTX2) [LLAASVALA (SEQ ID NO: 64)]	20 to 50%
IIYGGSVTGA (source genes TPI1, TPI1P1) [IIYGGSVTGA (SEQ ID NO: 65)]	20 to 50%
TLLKTIIKV (source gene CC2D2A) [TLLKTIIKV (SEQ ID NO: 66)]	20 to 50%
LLDVLAPLV (source gene COL18A1) [LLDVLAPLV (SEQ ID NO: 67)]	20 to 50%
B1	20 to 50%
ILADLLPSL (source gene DHRS7B) [ILADLLPSL (SEQ ID NO: 69)]	20 to 50%
ALDGHLYAV (source gene KBTBD11) [ALDGHLYAV (SEQ ID NO: 71)]	50 to 75%
FLLSLIDRL (source gene EGLN3) [FLLSLIDRL (SEQ ID NO: 7)]	50 to 75%
YSLEKVFGI (source gene MAGED2) [YSLEKVFGI (SEQ ID NO: 72)]	20 to 50%
GLDGIPFTV (source gene TRIP6) [GLDGIPFTV (SEQ ID NO: 73)]	50 to 75%
GLFHKQVTV (source gene PDZD2) [GLFHKQVTV (SEQ ID NO: 74)]	50 to 75%
FLIKSINLV (source gene KBTBD3) [FLIKSINLV (SEQ ID NO: 75)]	50 to 75%
VLADDHLIEV (source genes PDZK1P2, PDZK1, PDZK1P1) [VLADDHLIEV (SEQ ID NO: 76)]	20 to 50%
SLIKHKIML (source gene ATP6V1A) [SLIKHKIML (SEQ ID NO: 77)]	20 to 50%
ALLDTVVQA (source genes CACNA1I, CACNA1H) [ALLDTVVQA (SEQ ID NO: 78)]	20 to 50%
ALADIVWRA (source gene FAM188B) [ALADIVWRA (SEQ ID NO: 79)]	50 to 75%
KLASMLETL (source gene PRKCDBP) [KLASMLETL (SEQ ID NO: 80)]	50 to 75%
SLLPALPKL (source gene LRP2) [SLLPALPKL (SEQ ID NO: 81)]	20 to 50%

Binder	peptide exchange yield
GLASFKSFL (source gene RGS5) [GLASFKSFL (SEQ ID NO: 8)]	20 to 50%
SLLQATDFMSL (source gene THY1) [SLLQATDFMSL (SEQ ID NO: 82)]	50 to 75%
IQWSIVPEV (source gene GRAMD4) [IQWSIVPEV (SEQ ID NO: 83)]	50 to 75%
YLMDEGAHL (source gene UGDH) [YLMDEGAHL (SEQ ID NO: 84)]	20 to 50%
FVMSEIRTV (source gene ZNF618) [FVMSEIRTV (SEQ ID NO: 85)]	50 to 75%
GLLQGKLALL (source gene NQO2) [GLLQGKLALL (SEQ ID NO: 86)]	20 to 50%
TLAELHISL (source gene NLRC5) [TLAELHISL (SEQ ID NO: 88)]	20 to 50%
SLLLAVTEV (source gene JAG2) [SLLLAVTEV (SEQ ID NO: 89)]	20 to 50%
FTLEKNFVI (source gene COL6A2) [FTLEKNFVI (SEQ ID NO: 90)]	20 to 50%
MLLSSLVSL (source gene VKORC1) [MLLSSLVSL (SEQ ID NO: 91)]	20 to 50%
FLFRDILEL (source gene DROSHA) [FLFRDILEL (SEQ ID NO: 92)]	50 to 75%
ILLQKPDSV (source gene RGS5) [ILLQKPDSV (SEQ ID NO: 9)]	20 to 50%
GVMAGDIYSV (source gene PLIN2) [GVMAGDIYSV (SEQ ID NO: 93)]	≥ 75%
ILHHKVYDL (source gene CYB5A) [ILHHKVYDL (SEQ ID NO: 94)]	20 to 50%
KLTDVGIATL (source gene ALPK2) [KLTDVGIATL (SEQ ID NO: 95)]	20 to 50%
TLAETLVNL (source gene ANKRD52) [TLAETLVNL (SEQ ID NO: 96)]	50 to 75%
TLISELVQA (source gene CUL7) [TLISELVQA (SEQ ID NO: 97)]	20 to 50%
KIPPVSPSI (source gene ARRDC3) [KIPPVSPSI (SEQ ID NO: 98)]	20 to 50%
GLAPHLEQI (source gene IPO4) [GLAPHLEQI (SEQ ID NO: 99)]	20 to 50%
KLNVAPLAV (source genes MZT2A, MZT2B) [KLNVAPLAV (SEQ ID NO: 100)]	20 to 50%
HIYDKAFITV (source gene FLT1) [HIYDKAFITV (SEQ ID NO: 101)]	20 to 50%
LLFDVHTTL (source gene C5orf42) [LLFDVHTTL (SEQ ID NO: 102)]	50 to 75%
